Legend:
[1] = CD spectroscopy, secondary structural elements (Provencher–Glockner); assay type: physicochemical; parameters: unit not given here; conditions: deionized water, Provencher–Glockner method
Text: To calculate secondary structural elements of peptides, circular dichroism (CD) spectroscopy was applied. CD spectroscopy is a fast, well-established, and widely used analytical technique to study secondary structures of proteins and their changes in different environments. According to Figure 3, all spectra in the far UV region (190–240 nm) have similar profiles and are characterized by a positive maximum peak at 193 nm and negative minimum peaks at 202 and 225 nm. […] The peptides have an approximately equal content of secondary structural elements, while a slight increase in α-helixes and decrease in β-structure were found in HCIQ1c9 (Table 1), which might be reflected in the spatial structure and biological activity of the peptide.
Circular dichroism (CD) spectra were recorded on a Chirascan-Plus CD spectropolarimeter (Applied Photophysics, Leatherhead, UK) in quartz cuvettes with an optical path length of 0.1 cm for the peptide spectrum region. The peptides were dissolved in deionized water ([…]) and incubated at temperatures ranging from 25 °C to 100 °C for 20–25 min before recording the CD spectra. The secondary structure elements were calculated using the Provencher–Glockner method using advanced Provencher calculation programs from the CDPro software package (Leatherhead, UK).

Neuro-2a cells [2] = assay: Paraquat-induced ROS formation (H2DCF-DA); assay type: cell-based, murine; conditions: peptide 0.01 μM, 600 μM paraquat 3 h, means ± SE
Method: (§1) Figure 8 Effects of the peptides on intracellular ROS and NO formation. The effects of the peptides on ROS formation into Neuro-2a cells treated by 600 μM paraquat (a) and 10 μM rotenone (b). The effects of peptides on NO formation into the cells treated by 600 μM paraquat (c) and 10 μM rotenone (d). Cells were incubated with peptides for 1 h at 37 °C, then 3 or 1 h with paraquat or rotenone, respectively. The data are shown as the means ± SE; *—p < 0.05, **—p < 0.01, #—p < 0.05 when comparing concentrations of the same peptide.
(§2) Neuro-2a cells were incubated with peptides at concentrations of 0.01, 0.1, and 1 µM for 1 h. Then, paraquat (600 μM) or rotenone (10 µM) was added to each well and cells were incubated for 3 or 1 h, respectively. To study the ROS formation, the 2,7-dichlorodihydrofluorescein diacetate (H2DCF-DA) assay was performed according to the manufacturer’s instructions (Molecular Probes, Eugene, OR, USA). […]
(§3) To determine the NO production, a 4-amino-5-methylamino-2′,7′-difluorofluorescein diacetate (DAF-FM) assay was performed according to the manufacturer’s instructions (Invitrogen, Carlsbad, CA, USA). […] In both cases, the fluorescence intensity was measured using a PHERAstar FS high-speed plate reader (BMG Labtech, Ortenberg, Germany) at λex = 485 nm and λem = 518 nm. […]

Neuro-2a cells [3] = assay: Paraquat-induced toxicity, cell viability (MTT); assay type: cell-based, murine; conditions: peptide up to 10 μM, 600 μM paraquat, 24 h
Method: The murine neuroblastoma cell line Neuro-2a was purchased from ATCC (CCL-131, American Type Culture Collection, Manassas, VA, USA). Cells were cultured in Dulbecco’s modified Eagle’s medium (DMEM) (Biolot, St. Petersburg, Russia) containing 10% fetal bovine serum (Biolot, St. Petersburg, Russia) and 1% penicillin/streptomycin (Biolot, St. Petersburg, Russia) according to ATCC’s instruction. Cells were incubated at 37 °C in a humidified atmosphere containing 5% CO2 (v/v). Before the experiments, Neuro-2a cells at a concentration of 1 × 10^4 cells/well were dispensed into 96-well plates and incubated for 24 h in a humidified atmosphere containing 5% CO2 to allow cell attachment.
Then, 20 μL of substance solution was loaded into the cells and incubated for 24 h followed by replacement of the medium with tested substances and 100 μL of fresh medium. Then, 10 μL of MTT (3-(4,5-dimethylthiazol-2-yl)-2,5- diphenyltetrazolium bromide) (Sigma-Aldrich, St. Louis, MO, USA) stock solution (5 mg/mL) was added to each well and the microplate was incubated for 4 h. […] The absorbance of the converted dye formazan was measured using a Multiskan FC microplate photometer (Thermo Scientific, Waltham, MA, USA) at a wavelength of 570 nm. […] Cytotoxic activity was expressed as the percentage of cell viability. […]

Neuro-2a cells [4] = assay: Rotenone-induced ROS formation (H2DCF-DA); assay type: cell-based, murine; conditions: peptide 0.01 μM, 10 μM rotenone 1 h, means ± SE
Method: as §1, §2, §3

HCIQ2c1: recombinant Kunitz-type peptide from Heteractis crispa, UniProtKB ID A0A6B7FBD3 (IQGNICSEPKKVGRCRGSFPRFYFDSETGKCTPFIYGGCGGNGNNFETLHACRAICRA; UniProt A0A6B7FBD3 28-85, looked up)
Unordered Structure [1]: 35.7
β-Turn [1]: 19.0
α-Helix II ([1]; irregular structure): 13.9
β-Structure II ([1]; irregular structure): 6.9
β-Structure I ([1]; regular structure): 17.4
α-Helix I ([1]; regular structure, far UV 190–240 nm): 7.1
α-Helix III ([1]; summary value): 21.0
β-Structure III ([1]; summary value): 24.3
decrease in paraquat-induced ROS level (Neuro-2a cells [2]): 30.7 ± 1.8%
influence on viability of paraquat-treated cells (Neuro-2a cells [3]): did not influence the viability
decrease in rotenone-induced ROS level (Neuro-2a cells [4]): 22.0 ± 7.3%
